The record followed here is patent publication US20090317364A1, “NOVEL COMPOSITIONS FOR PREVENTION AND TREATMENT OF MASTITIS AND METRITIS” (priority 2006, published 2009).

Experiment [1] concerns Staphylococcus. aureus. The experiment is described as follows: Lab trials 2a (in vitro) for synergy, components added in wells for diffusion. In kind it is cell-based. From the text:
a) Lab trials 2a (in vitro) for synergy.

The test system of experiment [2] is Staphylococcus. aureus. The experiment in a line: Lab trials 2b (in vitro) for synergy, components added on top of the culture. In kind it is cell-based. The text has this:
b) Lab trials 2b (in vitro) for synergy.

B1: Serratiopeptidase (protein, UniProt P07268 17-487, looked up)
Serralysin: AATTGYDAVDDLLHYHERGNGIQINGKDSFSNEQAGLFITRENQTWNGYKVFGQPVKLTFSFPDYKFSSTNVAGDTGLSKFSAEQQQQAKLSLQSWADVANITFTEVAAGQKANITFGNYSQDRPGHYDYGTQAYAFLPNTIWQGQDLGGQTWYNVNQSNVKHPATEDYGRQTFTHEIGHALGLSHPGDYNAGEGNPTYRDVTYAEDTRQFSLMSYWSETNTGGDNGGHYAAAPLLDDIAAIQHLYGANLSTRTGDTVYGFNSNTGRDFLSTTSNSQKVIFAAWDAGGNDTFDFSGYTANQRINLNEKSFSDVGGLKGNVSIAAGVTIENAIGGSGNDVIVGNAANNVLKGGAGNDVLFGGGGADELWGGAGKDIFVFSAASDSAPGASDWIRDFQKGIDKIDLSFFNKEAQSSDFIHFVDHFSGAAGEALLSYNASNNVTDLSVNIGGHQAPDFLVKIVGQVDVATDFIV
notes: proteolytic enzyme isolated from the non-pathogenic Enterobacteria Serratia E15, CAS 37312-62-2
Turning to B1, in experiment [1], the “Inhibition zone diameter In cm for Staphylococcus. aureus” value was determined as 0.5 cm. Also, in experiment [2], the “Inhibition zone In diameter cm for Staphylococcus. aureus” value stood at 0.61 cm.
